Key:
INS-1 cells = assay: Proinsulin-NanoLuc Gaussia luciferase insulin secretion assay in INS-1 cells; assay type: cell-based, rat; settings: INS-1 stably expressing Proinsulin-NanoLuc; G20 mM + 100 nM Ex4; 20 mM KCl
Method: INS-1 cells were infected with the virus by spinfection (800 g, 1 hour at 37 degrees Celsius) and then changed to fresh INS-1 growth media. Seventy-two (72) hours after transfection, INS-1 cells were treated with 5 μg/ml Blasticidin (Invitrogen) for 7 days to select for Proinsulin-NanoLuc expressing cells. For insulin secretion assay, the cells (5×10^4-1×10^5 cells/well in 96 well) were pre-cultured in 3 mM glucose KRBB (100 μl/well). The cells were then incubated in KRBB (100 μl/well) with 3 mM and then sequentially incubated with 20 mM glucose with or without 100 nM Exendine-4 or 3 mM glucose with 20 mM KCl (100 μl/well). To determine Gaussia Luciferase activity as indicator of insulin secretion levels, 10 μl of samples are used for Luciferase assay using Pierce Gaussia Luciferase Flash Assay Kit (Prod #16159, Thermo Scientific).

[1] = tested on: human islet-like organoids; assay: Gaussia luciferase insulin secretion assay in human islet-like organoids; assay type: cell-based; settings: 10 to 100 per assay
Method: Mouse islets, human islets and human islets like organoids were plated in their respective growth media with 10 μg/ml Polybrene® polymer (Santacruz). Viruses were then added. After overnight culture, cells were placed in fresh growth media. […] Then, insulin secretion assays were performed. […] The cells were then incubated in KRBB (100 μl/well) with 3 mM for 30 min and then sequentially incubated with 20 mM glucose with or without 100 nM Exendin-4 or 3 mM glucose with 20 mM KCl (100 μl/well). To determine Gaussia Luciferase activity as indicator of insulin secretion levels, 10 μl of samples are used for Luciferase assay using Pierce Gaussia Luciferase Flash Assay Kit (Prod #16159, Thermo Scientific).

[2] = tested on: human islet-like organoids; assay: hIAPP toxicity, propidium iodide staining of islet-like organoids; assay type: cell-based
Text: FIG. 7 is a schematic showing modeling of human Type 2 diabetes in a dish. Generation of functional human organs such as a liver, pancreas, and islets provides new therapeutic strategies in drug-screening and modeling of human type 2 diabetes.
Generation of functional human organs according to methods described herein provides new strategies for drug-screening and disease modeling. Specifically, functional organoids can be used as models of type 2 diabetes for drug screening (FIG. 7).

[3] = tested on: hiPSC-derived islet organoids; assay: Insulin secretion assay (human c-peptide ELISA) of hiPSC-derived islet organoids; assay type: cell-based; settings: organoids day 22, 100 ng/ml for 12 days, G3 mM, G20 mM, KCL20 mM, without hADSC and HUVECs
Method: Insulin release from intact islets was monitored using batch incubation methods (Yoshihara et al., 2010, Nat. Commun. 1:127). Briefly, overnight-cultured isolated pancreatic islets (RPMI-1640 supplemented with 10% (v/v) fetal bovine serum and 1% (v/v) Antibiotic-Antimycotic (Gibco)) were pre-cultured at 37° C. for 30 min (Krebs-Ringer bicarbonate buffer (KRBB) containing 129.4 mM NaCl, 3.7 mM KCl, 2.7 mM CaCl2, 1.3 mM KH2PO4, 1.3 mM MgSO4, 24.8 mM NaHCO3 (equilibrated with 5% CO2, 95% O2, pH7.4), 10 mM HEPES and 0.2% (v/v) BSA (fraction V, Sigma) (KRBH) with 3 mM glucose). Pancreatic islets were then incubated in KRBH buffer (500 μl/10 islets) with 3 mM or 20 mM glucose to determine insulin secretion levels. After 30 min, islets were pelleted by centrifugation and insulin levels determined by ELISA (Rat/mouse Insulin ELISA KIT (Millipore) and Human Insulin ELISA KIT (Millipore) for mouse and human islets, respectively). For human iPSC derived cells, the cells (1×10^6 cells/well in 24 well) were pre-cultured in 3 mM glucose KRBH buffer (500 μl/well). The cells were then incubated in KRBB (200 μl/well) with 3 mM or 20 mM glucose to determine c-peptide secretion levels as indicator of insulin secretion levels. After 30 min, the cells were pelleted by centrifugation and c-peptide levels were determined by human c-peptide ELISA KIT (Millipore).

[4] = tested on: hiPSC-derived islet organoids; assay: Fluorescence imaging and FACS analysis of hiPSC-derived islet organoids (Mitotracker, Insulin-GFP); assay type: cell-based, human; settings: organoids day 27, 8 days treatment; for Insulin production (FACS): rhWNT4 100 ng/ml, rhWNT5a 400 ng/ml, conditioned media 50%, compared with PBS and control conditioned media
Method: FIGS. 12A-12H show a set of bar graphs and images illustrating the role of WNT proteins in the metabolic maturation of iPSC-derived islet organoids. […] FIG. 12B is a bar graph showing the induction of Esrrg gene expression in hiPSC-derived islet organoids, generated in the absence of supporting hADSC or HUVECs, in response to increasing doses of WNT4 (0, 10, 25, 50, 100, 200 ng/ml) and WNT5a (0, 25, 50, 100, 200, 400 ng/ml). FIG. 12C is a bar graph showing the induction of mitochondrial genes involved in oxidative phosphorylation (Cox7a2, Ndufa1, Ndufa7), lactate dehydrogenase (Ldha) and Fltp (a Wnt/planar cell polarity (PCP) effector and reporter gene) in hiPSC-derived islet organoids, generated in the absence of supporting hADSC or HUVECs, in response to increasing doses of WNT4 (0, 10, 25, 50, 100, 200 ng/ml) and WNT5a (0, 25, 50, 100, 200, 400 ng/ml). […] FIGS. 12F, 12G, and 12H show a set of bar graphs illustrating the results of FACS analyses of hiPSC-derived islet organoids (day 27) after 8 days treatment with PBS, WNT4 (100 ng/ml), WNT5a (400 ng/ml), control fibroblast conditioned media (50%), or WNT5a secreting fibroblast conditioned media (50%). The WNT proteins used were recombinant human (rh) proteins.
Human PSCs, including iPSC or ESC, were initially cultured in matrigel-coated plates (2 dimensional (2D) cultures. Cells were then treated with Accutase (Innovative Cell Technologies, Inc., San Diego, Calif.) to generate a single cell suspension, washed with PBS and centrifuged at 1000-1300 rpm for 5 minutes to pellet cells. Cells were resuspended with 3DKG Stem TeSR™ Base Medium (Stemcell Technologies, Cambridge, Mass.) with 10 μM Y-27632 (a RHO/ROCK pathway inhibitor compound) and cultured for an additional for 5 to 7 days until PSC sphere growth reached 50-100 μm diameter. Media was then replaced with differentiation media supplemented with 0.015% Kelcogel and 0.3% Methylcellulose. […]

[5] = tested on: hiPSC-derived islet organoids; assay: Gene expression (qPCR) in hiPSC-derived islet organoids treated with WNT proteins; assay type: cell-based, human; settings: for ERRγ-mitochondrial metabolic pathway: FIGS. 12A-12H; for Esrrg gene expression / expression of mitochondrial genes involved in oxidative phosphorylation (Cox7a2, Ndufa1, Ndufa7), lactate dehydrogenase (Ldha) and Fltp: organoids generated in the absence of hADSC or HUVECs, increasing doses rhWNT4 0-200 ng/ml, rhWNT5a 0-400 ng/ml
Method: Human PSCs, including iPSC or ESC, were initially cultured in matrigel-coated plates (2 dimensional (2D) cultures. Cells were then treated with Accutase (Innovative Cell Technologies, Inc., San Diego, Calif.) to generate a single cell suspension, washed with PBS and centrifuged at 1000-1300 rpm for 5 minutes to pellet cells. Cells were resuspended with 3DKG Stem TeSR™ Base Medium (Stemcell Technologies, Cambridge, Mass.) with 10 μM Y-27632 (a RHO/ROCK pathway inhibitor compound) and cultured for an additional for 5 to 7 days until PSC sphere growth reached 50-100 μm diameter. Media was then replaced with differentiation media supplemented with 0.015% Kelcogel and 0.3% Methylcellulose. The culture medium was changed to differentiation medium ([…]) containing 100 ng/ml human Activin (R&D Systems), 25 ng/ml recombinant human Wnt3a (R&D Systems) or 3 μM CHIR99021, a glycogen synthase kinase GSK-3 inhibitor (Axon Medchem, Reston, Va.; or Selleckchem) for 1 day and then to differentiation medium (S1) containing 100 ng/ml human Activin for another 2 days (Stage 1, Pancreatic Endoderm). Subsequently, the medium was replaced with differentiation medium (S2) containing 50 ng/ml FGF7 (R&D Systems) for 2 days, and then with differentiation medium (S3) containing 50 ng/ml FGF7, 0.25 μM SANT-1 (Sigma), 1 μM Retinoic Acid (Sigma), 100 nM LDN193189 (an ALK2 and ALK3 inhibitor, Sigma) and 100 nM α-Amyloid Precursor Protein Modulator TPB for 3 days. Subsequently, this medium was replaced with differentiation medium (S4) containing 0.25 μM SANT-1, 50 nM Retinoic Acid, 10 μM Alk5 inhibitor II, 1 μM T3 for 3 days. Subsequently, the medium was replaced with differentiation medium (S5) containing 100 nM LDN193189, 100 nM Gamma Secretase inhibitor XX GSiXX (Millipore) 10 μM Alk5 inhibitor II, 1 μM T3 for 7 days. Subsequently, the medium was replaced with differentiation medium (S5) containing 10 uM Trolox (Calbiochem), 2 μM R428 (Selleckchem), 1 mM N-acetyl cysteine, 10 μM Alk5 inhibitor II, 1 μM T3 for an additional 7 to 20 days. After confirmation of the insulin gene expression by either reporter expression or qPCR (typically on day 20-30), the medium was changed to differentiation medium (S5) containing 10 μM Trolox (Calbiochem), 2 μM R428 (Selleckchem), 1 mM N-acetyl cysteine, 10 μM Alk5 inhibitor II, 1 μM T3 and 100 ng/ml recombinant human (rh)Wnt4 (R&D Systems), 400 ng/ml rhWnt5a, or 50% Wnt5a conditioned medium for 1-20 days. Wnt5a conditioned medium was prepared by culturing an L-Wnt5a cell line (ATCC, CRL-2814) in DMEM with 10% FBS, 1% Penicillin-streptomycin for 4 days after cells had reached 70-100% confluence in T175-T225 Frasko cell culture flasks.
Total RNA was extracted using TRIzol reagent (Invitrogen) and RNeasy KIT (Qiagen). Reverse transcription was performed with a SuperScript III First-Strand Synthesis System kit (Invitrogen) or PrimeScript RT reagent kit (TAKARA). Real time quantitative RT-PCR (qPCR) was performed using SYBR Green (Bio-Rad).
(FIG. 12A). […] In addition, mitochondrial genes involved in oxidative phosphorylation (Cox7a2, Ndufa1, Ndufa7), lactate dehydrogenase (Ldha) and Fltp (a Wnt/planar cell polarity (PCP) effector and reporter gene) were induced in hiPSC-derived islet organoids that were generated in the absence of supporting hADSC or HUVECs, in response to increasing doses of rhWNT4 (0, 10, 25, 50, 100, 200 ng/ml) and rhWNT5a (0, 25, 50, 100, 200, 400 ng/ml), (FIG. 12C). Mitochondrial (Mitotracker; Mito-Red) and insulin (Insulin-GFP) levels were increased in hiPSC-derived islet organoids (day 27) after 8 days treatment with PBS or WNT4 (100 ng/ml). (FIG. 12D). Human iPSC-derived islet organoids (day 27) were generated after 8 days treatment with PBS or WNT4 (100 ng/ml). (FIG. 12E). […]

Row | expression of mitochondrial genes involved in oxidative phosphorylation (Cox7a2, Ndufa1, Ndufa7), lactate dehydrogenase (Ldha) and Fltp [5] | Molecule | Luciferase secretion (insulin secretion) (INS-1 cells) | stimulated insulin secretion of pooled organoids (secreted luciferase) [1] | Insulin production (FACS) [4] | ERRγ-mitochondrial metabolic pathway [5] | Esrrg gene expression [5] | also measured
1 |  | Exendin-4 | increased |  |  |  |  | 
2 |  | [Cl-].[K+] [potassium chloride] | increased | robust |  |  |  | 
3 |  | hIAPP: human amyloid polypeptide, an inducer of β cell loss in type 2 diabetic patients (KCNTATCATQRLANFLVHSSNNFGAILSSTNVGSNTY; Islet amyloid polypeptide; UniProt P10997 34-70, looked up) |  |  |  |  |  | G0/G1 arrest ([2]; 24 hours): dose-dependently induced G0/G1 arrest; apoptosis (propidium iodide staining in G0/G1 stage cells) ([2]; increasing concentrations): induces apoptosis
4 |  | GLP-1: incretin |  | enhanced GSIS |  |  |  | 
5 | induced | rhWNT4: recombinant human (rh)Wnt4 protein (R&D Systems) (protein, UniProt P56705 23-351, looked up) Protein Wnt-4: SNWLYLAKLSSVGSISEEETCEKLKGLIQRQVQMCKRNLEVMDSVRRGAQLAIEECQYQFRNRRWNCSTLDSLPVFGKVVTQGTREAAFVYAISSAGVAFAVTRACSSGELEKCGCDRTVHGVSPQGFQWSGCSDNIAYGVAFSQSFVDVRERSKGASSSRALMNLHNNEAGRKAILTHMRVECKCHGVSGSCEVKTCWRAVPPFRQVGHALKEKFDGATEVEPRRVGSSRALVPRNAQFKPHTDEDLVYLEPSPDFCEQDMRSGVLGTRGRTCNKTSKAIDGCELLCCGRGFHTAQVELAERCSCKFHWCCFVKCRQCQRLVELHTCR |  |  | found | activate | induced | functional maturation based on secretion of human c-peptide ([3]; listed as Wnt4): sufficient to induce in vitro functional maturation; functional maturation based on secretion of human c-peptide ([3]; listed as rhWnt4): functional maturation; Mitochondrial (Mitotracker; Mito-Red) and insulin (Insulin-GFP) levels ([4]; 100 ng/ml): increased
6 | induced | rhWNT5a: recombinant human Wnt5a protein (protein, UniProt P41221 62-380, looked up) Protein Wnt-5a: IIGAQPLCSQLAGLSQGQKKLCHLYQDHMQYIGEGAKTGIKECQYQFRHRRWNCSTVDNTSVFGRVMQIGSRETAFTYAVSAAGVVNAMSRACREGELSTCGCSRAARPKDLPRDWLWGGCGDNIDYGYRFAKEFVDARERERIHAKGSYESARILMNLHNNEAGRRTVYNLADVACKCHGVSGSCSLKTCWLQLADFRKVGDALKEKYDSAAAMRLNSRGKLVQVNSRFNSPTTQDLVYIDPSPDYCVRNESTGSLGTQGRLCNKTSEGMDGCELMCCGRGYDQFKTVQTERCHCKFHWCCYVKCKKCTEIVDQFVCK |  |  | found | activate | induced | 
